PMC11697773

What was measured:
[1] = target: human neonatal Fc receptor (FcRn) (human) (UniProt P55899); test: BLI; Octet; biotinylated human FcRn on streptavidin-coated biosensors, antibody soluble; equilibrium binding; PBSA pH 5.6; tips regenerated in PBSA pH 7.4
[2] = target: human Fcγ receptor I (FcγRI) (human) (UniProt P12314); test: BLI; Octet; biotinylated human FcγRI on streptavidin-coated biosensors, antibody soluble; equilibrium binding; PBSA pH 7.4; tips regenerated in 0.1 M glycine pH 3.5
Sequence of human Fcγ receptor I (FcγRI) (human) (P12314 16-292): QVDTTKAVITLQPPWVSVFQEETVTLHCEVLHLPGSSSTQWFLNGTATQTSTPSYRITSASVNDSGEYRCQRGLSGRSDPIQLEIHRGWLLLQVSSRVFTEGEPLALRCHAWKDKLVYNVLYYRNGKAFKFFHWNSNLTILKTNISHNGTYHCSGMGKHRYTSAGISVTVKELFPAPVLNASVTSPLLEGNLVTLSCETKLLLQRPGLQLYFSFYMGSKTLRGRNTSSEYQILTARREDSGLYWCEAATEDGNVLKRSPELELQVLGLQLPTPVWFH

Kd [2] [nM]	Substance	Kd [1] [nM]
	trastuzumab N297G + YTE + SEFL (aglycosylated variant) (antibody)	20.4
105	F5111 antibody, N297A	132
